From patent publication US20140086935A1 (Bayer, published 2014)
Where a chain is given by its changes, count along the chain named. Read-outs that look alike come from different tables or passages of the source.

Tests used:
rat TIMP-1 [1] = biological target: T1, rat TIMP-1 (rat, UniProt P30120 24-217); assay: SPR (BIAcore), TIMP-1 coupled to chip, monovalent Fab
Method: (§1) For affinity determination, monomeric fractions of affinity and SEC purified Fab fragments or purified IgG1 molecules were used. All experiments were conducted in HBS buffer at a flow rate of 20 μl/min at 25° C. on a BIAcore™ instrument. Antigens in 100 mM sodium acetate pH 5.0 were coupled to a CM 5 sensor chip using standard EDC-NHS coupling chemistry. […] All sensograms were fitted globally using BIA evaluation software. For monovalent Fab fragments a monovalent fit (Langmuir binding) and for IgGs a bivalent fit was applied.

human TIMP-1 [2] = biological target: T2, human TIMP-1 (human, UniProt P01033 24-207); assay: as above
T2 construct: Purified protein, coupled to the BIAcore chip or in solution in the protease assay
Method: as §1

human TIMP-1 [3] = biological target: T2, human TIMP-1; assay: cell-based or functional assay
rat TIMP-1 [4] = biological target: T1, rat TIMP-1; assay: cell-based or functional assay
human TIMP-1 [5] = biological target: T2, human TIMP-1; assay: cell-based or functional assay; remark: listed apart in the source
human TIMP-1 [6] = biological target: T2, human TIMP-1; assay: SPR (BIAcore), TIMP-1 coupled to chip, monovalent Fab; remark: listed apart in the source
Method: as §1

rat TIMP-1 [7] = biological target: T1, rat TIMP-1; assay: as above; remark: listed apart in the source
Method: as §1

rat TIMP-1 [8] = biological target: T1, rat TIMP-1; assay: cell-based or functional assay; remark: listed apart in the source
human TIMP-1 [9] = biological target: T2, human TIMP-1; assay: cell-based or functional assay; remark: listed apart in the source
human TIMP-1 [10] = biological target: T2, human TIMP-1; assay: SPR (BIAcore), TIMP-1 coupled to chip, monovalent Fab; remark: listed apart in the source
Method: as §1

human TIMP-1 [11] = biological target: T2, human TIMP-1; assay: as above; remark: listed apart in the source
Method: as §1

human TIMP-1 [12] = biological target: T2, human TIMP-1; assay: cell-based or functional assay; remark: listed apart in the source
human TIMP-1 [13] = biological target: T2, human TIMP-1; assay: SPR (BIAcore); against the parental Fab (MS-BW-3, 13 nM; not given)
Method: as §1

human TIMP-1 [14] = biological target: T2, human TIMP-1; assay: cell-based or functional assay; remark: listed apart in the source
human TIMP-1 [15] = biological target: T2, human TIMP-1; assay: SPR (BIAcore), monovalent Fab
Method: as §1

human TIMP-1 [16] = biological target: T2, human TIMP-1; assay: cell-based or functional assay; remark: listed apart in the source
human TIMP-1 [17] = biological target: T2, human TIMP-1; assay: SPR (BIAcore), monovalent Fab; against parental clone MS-BW-3 (best Fab and parent named in paragraph 170)
human TIMP-1 [18] = biological target: T2, human TIMP-1; assay: SPR (BIAcore); against the parental Fab (MS-BW-44-6, 0.6 nM; implied)
Method: as §1

human TIMP-1 [19] = biological target: T2, human TIMP-1; assay: SPR (BIAcore); against the parental Fab (MS-BW-44-2, 0.5 nM; implied)
Method: as §1

rat TIMP-1 [20] = biological target: T1, rat TIMP-1; assay: cell-based or functional assay; remark: listed apart in the source
rat TIMP-1 [21] = biological target: T1, rat TIMP-1; assay: cell-based or functional assay; remark: listed apart in the source
rat TIMP-1 [22] = biological target: T1, rat TIMP-1; assay: SPR (BIAcore), rat TIMP-1 on chip, monovalent Fab
Method: as §1

rat TIMP-1 [23] = biological target: T1, rat TIMP-1; assay: cell-based or functional assay; remark: listed apart in the source
rat TIMP-1 [24] = biological target: T1, rat TIMP-1; assay: SPR (BIAcore), rat TIMP-1 on chip, IgG1, bivalent (avidity)
Method: as §1
Affinity matured clone MS-BW-17-1 was then converted from a monovalent Fab fragment to a bivalent IgG₁. Protein was produced by stable transfection. Purified protein was subjected to quality control in BIAcore™ and rat TIMP-1/rat MMP-13 assays (FIG. 13).

human TIMP-1 [25] = biological target: T2, human TIMP-1; assay: SPR (BIAcore), human TIMP-1 on chip, IgG1, bivalent fit (avidity)
Method: as §1

T1 sequence (P30120 24-217 limits assumed): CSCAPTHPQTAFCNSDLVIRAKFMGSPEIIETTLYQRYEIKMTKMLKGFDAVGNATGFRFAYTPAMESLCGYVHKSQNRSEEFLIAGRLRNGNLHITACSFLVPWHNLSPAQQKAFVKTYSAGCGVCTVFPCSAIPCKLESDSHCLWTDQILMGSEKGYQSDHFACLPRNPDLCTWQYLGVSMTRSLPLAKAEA

B1: MS-BW-25 (Fab, V domains shown)
VH: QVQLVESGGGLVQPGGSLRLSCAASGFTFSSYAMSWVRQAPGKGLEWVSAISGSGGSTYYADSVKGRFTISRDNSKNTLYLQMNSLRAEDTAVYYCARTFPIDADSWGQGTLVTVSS
VL: DIALTQPASVSGSPGQSITISCTGTSSDVGGYNYVSWYQQHPGKAPKLMIYDVSNRPSGVSNRFSGSKSGNTASLTISGLQAEDEADYYCQSYDFINVIVFGGGTKLTVLG
notes: Fab, FLAG + Strep-tag II; not tied by name
Kd (rat TIMP-1 [1]): 4520 nM
Kd (human TIMP-1 [2]): 25 nM
IC50 in human protease assay (human TIMP-1 [3]): 115 nM
IC50 in rat protease assay (rat TIMP-1 [4]): > 300 nM
IC50 in human protease assay (human TIMP-1 [5]): 115 nM
Kd (human TIMP-1 [6]): 25 nM

B2: MS-BW-38 (Fab, V domains shown)
VH: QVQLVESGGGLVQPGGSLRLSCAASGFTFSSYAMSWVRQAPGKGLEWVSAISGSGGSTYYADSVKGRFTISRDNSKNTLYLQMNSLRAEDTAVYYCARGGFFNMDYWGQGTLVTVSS
VL: B1 VL with I96T, N97Y, V98G, I99S
notes: as for B1
Kd (rat TIMP-1 [7]): ~353 nM
IC50 in rat protease assay (rat TIMP-1 [8]): > 300 nM
Kd (rat TIMP-1 [1]): ~353 nM
Kd (human TIMP-1 [2]): ~3 nM
IC50 in rat protease assay (rat TIMP-1 [4]): > 300 nM
IC50 in human protease assay (human TIMP-1 [5]): ~11 nM

B3: MS-BW-44 (Fab, V domains shown)
VH: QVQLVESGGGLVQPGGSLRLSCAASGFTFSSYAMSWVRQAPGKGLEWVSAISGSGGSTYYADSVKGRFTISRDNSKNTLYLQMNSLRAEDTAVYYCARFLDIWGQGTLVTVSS
VL: B1 VL with I96V, N97R, V98F, I99M
notes: Fab: heavy chain of MS-BW-3 with light chain of MS-BW-26; not tied by name
IC50 in human protease assay (modified, 0.4 nM TIMP-1 and MMP-1) (human TIMP-1 [9]): 2 nM
Kd (human TIMP-1 [10]): 2 nM
Kd (human TIMP-1 [11]): 2 nM
IC50 in human protease assay (human TIMP-1 [12]): 4 nM
improvement factor (Kd) (human TIMP-1 [13]): 6.5 fold
IC50 in human protease assay (human TIMP-1 [14]): 4 nM
IC50 in human protease assay (modified, decreased amounts of TIMP-1 and MMP-1) (human TIMP-1 [14]): 2 nM
Kd (human TIMP-1 [2]): 2 nM

B4: MS-BW-2 (Fab, V domains shown)
VH: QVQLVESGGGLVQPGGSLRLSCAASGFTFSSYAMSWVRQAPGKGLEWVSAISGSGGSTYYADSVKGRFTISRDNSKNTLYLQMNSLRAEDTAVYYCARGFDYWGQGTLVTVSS
VL: B1 VL with I96K, N97T, V98Y, I99L
notes: as for B1
IC50 in human protease assay (human TIMP-1 [3]): > 100 nM
Kd (human TIMP-1 [6]): 180 nM

B5: MS-BW-28 (Fab, V domains shown)
VH: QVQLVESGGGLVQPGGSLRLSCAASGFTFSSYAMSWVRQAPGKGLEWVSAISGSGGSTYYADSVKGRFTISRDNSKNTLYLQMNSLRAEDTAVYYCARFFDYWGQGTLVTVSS
VL: B1 VL with I96R, N97R, V98F, I99S
notes: as for B1
IC50 in human protease assay (human TIMP-1 [3]): 22 nM
Kd (human TIMP-1 [6]): 10 nM

B6: MS-BW-44-2 (Fab, V domains shown)
VH: QVQLVESGGGLVQPGGSLRLSCAASGFTFSSYAMSWVRQAPGKGLEWVSGISGNGVLIFYADSVKGRFTISRDNSKNTLYLQMNSLRAEDTAVYYCARFLDIWGQGTLVTVSS
VL: B1 VL with I96V, N97R, V98F, I99M
notes: Fab; MS-BW-44 with a modified HCDR2 cassette
IC50 in human protease assay (modified, 0.4 nM TIMP-1 and MMP-1) (human TIMP-1 [9]): 0.4 nM
Kd (human TIMP-1 [10]): 0.5 nM
Kd (human TIMP-1 [11]): 0.5 nM
IC50 in human protease assay (modified, decreased TIMP-1 and MMP-1) (human TIMP-1 [14]): 0.4 nM

B7: MS-BW-44-6 (Fab, V domains shown)
VH: B6 VH with S30N, G50V, V56S, L57N, I58T, F59Y
VL: B1 VL with I96V, N97R, V98F, I99M
notes: Fab; MS-BW-44 with modified HCDR1 and HCDR2 cassettes
IC50 in human protease assay (modified, 0.4 nM TIMP-1 and MMP-1) (human TIMP-1 [9]): 0.2 nM
Kd (human TIMP-1 [10]): 0.6 nM
Kd (human TIMP-1 [11]): 0.6 nM
IC50 in human protease assay (modified, decreased TIMP-1 and MMP-1) (human TIMP-1 [14]): 0.2 nM

B8: MS-BW-44-6-1 (Fab, V domains shown)
VH: B6 VH with S30N, G50V, V56S, L57N, I58T, F59Y
VL: B1 VL with N97R, V98F, I99M
notes: Fab from LCDR3 optimization of MS-BW-44-6
Kd (human TIMP-1 [10]): 0.2 nM
Kd (human TIMP-1 [15]): 0.15 nM
improvement factor of activity in human TIMP-1/MMP-1 assay (against parental clone MS-BW-3) (human TIMP-1 [16]): 55 fold
improvement factor of monovalent affinity (human TIMP-1 [17]): 87 fold
improvement factor (affinity) (human TIMP-1 [18]): 4 fold
IC50 in human protease assay (modified, decreased TIMP-1 and MMP-1) (human TIMP-1 [14]): 0.2 nM

B9: MS-BW-44-2-4 (Fab, V domains shown)
VH: QVQLVESGGGLVQPGGSLRLSCAASGFTFSSYAMSWVRQAPGKGLEWVSGISGNGVLIFYADSVKGRFTISRDNSKNTLYLQMNSLRAEDTAVYYCARGLMDYWGQGTLVTVSS
VL: B1 VL with I96V, N97R, V98F, I99M
notes: Fab from HCDR3 optimization of MS-BW-44-2
Kd (human TIMP-1 [10]): 0.2 nM
improvement factor (affinity) (human TIMP-1 [19]): 2.5 fold
improvement factor with respect to the IC50 in human TIMP-1/MMP-1 assay (against the Fab of the previous maturation cycle, MS-BW-44-2) (human TIMP-1 [16]): 2 fold
IC50 in human protease assay (modified, decreased TIMP-1 and MMP-1) (human TIMP-1 [14]): 0.2 nM

B10: MS-BW-21 (Fab, V domains shown)
VH: QVQLVQSGAEVKKPGSSVKVSCKASGGTFSSYAISWVRQAPGQGLEWMGGIIPIFGTANYAQKFQGRVTITADESTSTAYMELSSLRSEDTAVYYCARYIGYTNVMDIRPGFYLDYWGQGTLVTVSS
VL: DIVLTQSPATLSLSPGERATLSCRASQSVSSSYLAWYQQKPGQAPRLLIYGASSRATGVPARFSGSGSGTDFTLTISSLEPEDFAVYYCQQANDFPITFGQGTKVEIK
Kd (rat TIMP-1 [7]): 36 nM
IC50 in rat protease assay (rat TIMP-1 [8]): 67 nM
Kd (rat TIMP-1 [1]): 36 nM
Kd (human TIMP-1 [2]): 520 nM
IC50 in rat protease assay (rat TIMP-1 [4]): 67 nM
IC50 in human protease assay (human TIMP-1 [5]): > 300 nM

B11: MS-BW-14 (Fab, V domains shown)
VH: QVQLVQSGAEVKKPGSSVKVSCKASGGTFSSYAISWVRQAPGQGLEWMGGIIPIFGTANYAQKFQGRVTITADESTSTAYMELSSLRSEDTAVYYCARWSDQSYHYYWHPYFDVWGQGTLVTVSS
VL: DIVLTQPPSVSGAPGQRVTISCSGSSSNIGSNYVSWYQQLPGTAPKLLIYDNNQRPSGVPDRFSGSKSGTSASLAITGLQSEDEADYYCQSWDLEPYVFGGGTKLTVLG
notes: Fab, FLAG + Strep-tag II; not tied by name; also called MS-BW-14 Fab
Kd (rat TIMP-1 [7]): 10 nM
IC50 in rat protease assay (rat TIMP-1 [20]): 14 nM
IC50 (50 % reversal of the inhibition of rat MMP-13 by rat TIMP-1, fluorogenic peptide substrate assay) (rat TIMP-1 [21]): ~11 nM
Kd (rat TIMP-1 [22]): 13 nM
IC50 in rat protease assay (rat TIMP-1 [8]): 14 nM
Kd (rat TIMP-1 [1]): 10 nM

B12: MS-BW-17-1 (Fab, V domains shown)
VH: QVQLVQSGAEVKKPGESLKISCKGSGYSFTSYWIGWVRQMPGKGLEWMGIIYPGDSDTRYSPSFQGQVTISADKSISTAYLQWSSLKASDTAMYYCARLTNYFDSIYYDHWGQGTLVTVSS
VL: DIALTQPASVSGSPGQSITISCTGTSSDVGGYNYVSWYQQHPGKAPKLMIYDVSNRPSGVSNRFSGSKSGNTASLTISGLQAEDEADYYCQAFDVAPNGKVFGGGTKLTVLG
notes: Fab from LCDR3 optimization of MS-BW-17; also called MS-BW-17-1 Fab; BW-17-1 Fab
IC50 in rat protease assay (rat TIMP-1 [20]): 1.6 nM
IC50 (50 % reversal of the inhibition of rat MMP-13 by rat TIMP-1, fluorogenic peptide substrate assay) (rat TIMP-1 [23]): ~1.3 nM
Kd (rat TIMP-1 [1]): 0.8 nM

B13: MS-BW-39 (Fab, V domains shown)
VH: QVQLVQSGAEVKKPGSSVKVSCKASGGTFSSYAISWVRQAPGQGLEWMGGIIPIFGTANYAQKFQGRVTITADESTSTAYMELSSLRSEDTAVYYCARGYIPYHLFDYWGQGTLVTVSS
VL: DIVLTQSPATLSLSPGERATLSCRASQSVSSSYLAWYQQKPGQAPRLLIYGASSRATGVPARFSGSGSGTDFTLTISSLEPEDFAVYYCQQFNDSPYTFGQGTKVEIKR
notes: as for B1
Kd (rat TIMP-1 [7]): ~108 nM
IC50 in rat protease assay (rat TIMP-1 [8]): > 100 nM
Kd (rat TIMP-1 [1]): ~108 nM
IC50 in rat protease assay (rat TIMP-1 [4]): > 100 nM

B14: MS-BW-17-1 IgG1 (antibody, V domains shown)
VH: B12 VH
VL: DIALTQPASVSGSPGQSITISCTGTSSDVGGYNYVSWYQQHPGKAPKLMIYDVSNRPSGVSNRFSGSKSGNTASLTISGLQAEDEADYYCQAFDVAPNGKVFGGGTKLTVL
notes: Fab MS-BW-17-1 converted to bivalent human IgG1
Kd (rat TIMP-1 [24]): 0.04 nM
IC50 (50 % reversal of the inhibition of rat MMP-13 by rat TIMP-1, fluorogenic peptide substrate assay) (rat TIMP-1 [23]): ~0.9 nM

B15: MS-BW-3 IgG1 (antibody, V domains shown)
VH: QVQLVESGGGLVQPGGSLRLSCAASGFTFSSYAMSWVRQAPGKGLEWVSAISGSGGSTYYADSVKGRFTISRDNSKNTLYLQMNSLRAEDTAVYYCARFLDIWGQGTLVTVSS
VL: DIALTQPASVSGSPGQSITISCTGTSSDVGGYNYVSWYQQHPGKAPKLMIYDVSNRPSGVSNRFSGSKSGNTASLTISGLQAEDEADYYCQSYDFLRFSVFGGGTKLTVL
notes: Variable regions of Fab MS-BW-3 cloned into human IgG1 vectors; also called negative control IgG1 MS-BW-3; control antibody; copies: 2 + 2
Kd (human TIMP-1 [25]): ~0.4 nM
